Reference: patent US11078465B2, “Alcohol dehydrogenase mutant and application thereof in synthesis of diaryl chiral alcohols” (Jiangnan University, priority 2018, dated 2021)

Key:
Format in all cases: biochemical
[1] = system: O=C(c1ccc(Cl)cc1)c1ccccn1; test: Kinetic analysis of alcohol dehydrogenase mutant (CPMK reduction, NADPH absorption at 340 nm); details: substrate CPMK, pH 7.0, 30° C.
Procedure: (§1) Adopting a total reaction system of 200 μL, including: 1.0 mM NADPH, 1.0 mM substrate CPMK and sodium phosphate buffer (PBS, 100 mM, pH 7.0), fully and evenly mixing, maintaining at 30° C. for 2 min, adding an appropriate amount of enzyme solution, and detecting the change in light absorption at 340 nm.
(§2) The enzyme activity was calculated by the following formula: Enzyme activity (U)=EW×V×10^3/(6220×I);
(§3) in the formula, EW is the change in absorbance at 340 nm in 1 min; V is the volume of a reaction solution in mL; 6220 is the molar extinction coefficient of NADPH in L/mol·cm); and 1 is the optical path distance in cm. One activity unit (U) corresponds to the amount of enzyme required to catalyze the oxidation of 1 μmol NADPH per minute under the above conditions.
(§4) A column used for purification was a nickel affinity column HisTrap FF crude, and purification was achieved through affinity chromatography using a histidine tag on recombinant protein. The nickel column was equilibrated with a solution A first, a crude enzyme solution was loaded, a penetrating peak was further eluted off using the solution A, and after equilibrium, a solution B (20 mM sodium phosphate, 500 mM NaCl, and 1000 mM imidazole, pH 7.4) was used for gradient elution to elute off the recombinant protein bound to the nickel column, so as to obtain the recombinant alcohol dehydrogenase mutant. The purified protein was subjected to activity measurement (CPMK as substrate, and NADPH as coenzyme) and SDS-PAGE analysis. […] The purified alcohol dehydrogenase protein was then replaced into a Tris-HCl (100 mM, pH 7.0) buffer using a Hi Trap Desalting column (GE Healthcare).
(§5) The activity of KpADH at different substrate concentrations and coenzyme concentrations was determined, and a double reciprocal curve was made based on the reciprocal of activity and substrate concentration to calculate kinetic parameters.
(§6) Two mutants of S237A and S237C valuable for modification of asymmetric synthesis R- and S- are obtained by random mutation screening, and the two sites are used as templates for random mutation. […] It can be known by combining the data in Tables 2 and 3 that the 214 site of alcohol dehydrogenase is a site that is important for determining selectivity improvement and inversion.

[2] = system: O=C(c1ccc(Cl)cc1)c1ccccn1; test: Kinetic analysis of alcohol dehydrogenase (CPMK reduction, NADPH absorption at 340 nm); details: other: WT, substrate CPMK, pH 7.0, 30° C.
Procedure: as §1, §2, §3, §4, §5

[3] = system: O=C(c1ccc(Cl)cc1)c1ccccn1; test: Kinetic analysis of alcohol dehydrogenase mutant (CPMK reduction, NADPH absorption at 340 nm); details: other: E214G/S237C, substrate CPMK, pH 7.0, 30° C.
[4] = target: alcohol dehydrogenase KpADH, wild type (WT), SEQ ID No. 2 (Vanderwaltozyma polyspora, UniProt A7TM80); test: Kinetic analysis of alcohol dehydrogenase (CPMK reduction, NADPH absorption at 340 nm); design: unit not given here
Procedure: as §1, §2, §3, §4, §5

[5] = target: alcohol dehydrogenase KpADH (SEQ ID No. 2) mutant F320V/S237A (Vanderwaltozyma polyspora, UniProt A7TM80, form not given/S237A); test: Kinetic analysis of alcohol dehydrogenase mutant (CPMK reduction, NADPH absorption at 340 nm); details: substrate CPMK, pH 7.0, 30° C.
Procedure: as §1, §2, §3, §4, §5, §6

[6] = target: alcohol dehydrogenase KpADH (SEQ ID No. 2) mutant F320W/S237A (Vanderwaltozyma polyspora, UniProt A7TM80, form not given/S237A); test: as above; details: substrate CPMK, pH 7.0, 30° C.
Procedure: as §1, §2, §3, §4, §5, §6

alcohol dehydrogenase KpADH (SEQ ID No. 2) mutant S237A (Vanderwaltozyma polyspora DSM 70294; S237A)
Km ([1]; other: S237A): 580 ± 30 µM | Vmax ([1]; other: S237A): 36.5 µM/min/mg | kcat ([1]; other: S237A): 24.4 ± 1.26 s⁻¹ | kcat/Km ([1]; other: S237A): 42000 ± 2360 M⁻¹ s⁻¹

alcohol dehydrogenase KpADH (SEQ ID No. 2) mutant A269C/S237C (Vanderwaltozyma polyspora DSM 70294; A269C/S237C)
Km ([1]; other: A269C/S237C): 1560 ± 20 µM | Vmax ([1]; other: A269C/S237C): 22.6 µM/min/mg | kcat ([1]; other: A269C/S237C): 15.4 ± 0.86 s⁻¹ | kcat/Km ([1]; other: A269C/S237C): 9900 ± 360 M⁻¹ s⁻¹

alcohol dehydrogenase KpADH (SEQ ID No. 2) mutant H249Y/S237C (Vanderwaltozyma polyspora DSM 70294; H249Y/S237C)
Km ([1]; other: H249Y/S237C): 980 ± 20 µM | Vmax ([1]; other: H249Y/S237C): 16.5 µM/min/mg | kcat ([1]; other: H249Y/S237C): 11 ± 0.83 s⁻¹ | kcat/Km ([1]; other: H249Y/S237C): 11200 ± 980 M⁻¹ s⁻¹

alcohol dehydrogenase KpADH, wild type (WT), SEQ ID No. 2 (Vanderwaltozyma polyspora DSM 70294)
Km [2]: 760 ± 190 µM | Vmax [2]: 21.3 µM/min/mg | kcat [2]: 14.2 ± 1.16 s⁻¹ | kcat/Km [2]: 18700 ± 620 M⁻¹ s⁻¹

alcohol dehydrogenase KpADH (SEQ ID No. 2) mutant S237C (Vanderwaltozyma polyspora DSM 70294; S237C)
Km ([1]; other: S237C): 1010 ± 100 µM | Vmax ([1]; other: S237C): 20.9 µM/min/mg | kcat ([1]; other: S237C): 13.9 ± 0.99 s⁻¹ | kcat/Km ([1]; other: S237C): 13800 ± 250 M⁻¹ s⁻¹

alcohol dehydrogenase KpADH (SEQ ID No. 2) mutant L60F/S237C (Vanderwaltozyma polyspora DSM 70294; L60F/S237C)
Km ([1]; other: L60F/S237C): 1120 ± 20 µM | Vmax ([1]; other: L60F/S237C): 12.6 µM/min/mg | kcat ([1]; other: L60F/S237C): 8.4 ± 0.23 s⁻¹ | kcat/Km ([1]; other: L60F/S237C): 7500 ± 690 M⁻¹ s⁻¹

alcohol dehydrogenase KpADH (SEQ ID No. 2) mutant M12, E214G/S237C (Vanderwaltozyma polyspora DSM 70294; E214G/S237C)
Km [3]: 310 ± 20 µM | Vmax [3]: 9.54 µM/min/mg | kcat [3]: 6.3 ± 0.11 s⁻¹ | kcat/Km [3]: 22100 ± 1370 M⁻¹ s⁻¹

O=C(c1ccc(Cl)cc1)c1ccccn1 [CPMK, (4-chlorophenyl)-(pyridin-2-yl)-methanone]
Km [4]: 0.76 | Kcat [5]: 5.9 ± 0.09 s⁻¹ | Km [5]: 1150 ± 50 µM | Vmax [5]: 8.9 ± 0.78 µM/min/mg | Kcat [6]: 11.07 ± 0.25 s⁻¹ | Km [6]: 1660 ± 20 µM | Vmax [6]: 16.6 ± 0.37 µM/min/mg
